The labels stand for the following.
B1: CL-82455 (antibody, human IgG4 S228P, kappa, V domains shown)
VH: QVQLVESGGGVVQPGRSLRLSCAASGFTFNNYGMHWVRQAPGKGLEWVAVIWNDGSNKYYGDSVKGRFTISRDNSKNTLYLQMNSLRAEDTAVYYCARGGGYYGSGKHYRGYYYNGMGVWGQGTPVTVSS
VL: EIVMTQSPATLSVSPGERATLSCRASQSVSSNLAWYQQKPGQAPRLLIYGASTRATGIPARFSGSGSGTEVTLTISSLQSEDFTIYYCQQYNNWPWTFGQGTKVDIKR
B2: CL-82580 (antibody, human IgG4 S228P, kappa, V domains shown)
VH: QVQLVQSGAEVKKPGASVKVSCRASGYTFTNYDINWVRQATGQGLEWMGWMNPNSGNTGYAQKFQGRVTMTRNTSISAAYMELSSLRSEDTAVYYCARGRGYYGSGSRYRGYYYYGMDVWGQGTTVTVSS
VL: not shown
notes: Tested in human IgG4-PE format
B3: CL-82551 (antibody, human IgG4 S228P, kappa, V domains shown)
VH: B2 VH with R23K, N31S, A78T, R108H, M117L
VL: DIQMTQSPSTLSASVGDRVTITCRASQSISSWLAWYQQKPGKAPKVLIYKASSLKSGVPSRFSGSGSGTEFTLTVSSLQPDDFATYYCQQYNSYSWTFGQGTKVEIKR
notes: as for B2
B4: CL-82583 (antibody, human IgG4 S228P, kappa)
heavy: not shown
light: DIQMTQSPSSLSASVGDRVTITCRASQGVRDDLGWYQQKPGKAPKRLIYAASSLQSGVPSRFSGSGSGTEFTLTISSLQPEDFATYYCLQHNSYPFTFGPGTKVDIKRTVAAPSVFIFPPSDEQLKSGTASVVCLLNNFYPREAKVQWKVDNALQSGNSQESVTEQDSKDSTYSLSSTLTLSKADYEKHKVYACEVTHQGLSSPVTKSFNRGEC
notes: as for B2
B5: CL-82556 (antibody, human IgG4 S228P, kappa, V domains shown)
VH: QVQLVESGGGVVQPGRSLRLSCAASGFTFYSYGMHWVRQAPGKGLEWVAVIWYGGTNKYYADSVKGRFTISRDNSKNTLYLQMNSLTAEDTAVYYCARGQLERRRGGLNIWGQGTMVTVSS
VL: DIQMTQSPSSLSASVGDRVTITCRASQGVRDDLGWYQQKPGKAPKRLIYAASNLQSGVPSRFSGSGSGTEFTLTIGSLQPEDFATYYCLQHNSYPFTFGPGTKVDIKR
notes: as for B2
B6: CL-82541 (antibody, human IgG4 S228P, kappa, V domains shown)
VH: QVQLQESGPGLVKPSQTLSLTCTVSGGSISSGRYYWSWIRQLPGKGLEWIGYISYSGNPFYSPSLKSRVTISVDTSENQFSLKLSSVTAADTAVYYCARDRRIPMLRGVKGYYYGMDVWGQGTTVTVSS
VL: not shown
notes: as for B2
B7: CL-82571 (antibody, human IgG4 S228P, kappa, V domains shown)
VH: EVQLVESGGGLVQPGGSLKLSCAASGFTFSGSAMHWVRQASGKGLEWVGRIRSKANKYATAYAASVKGRFTISRDDSKNTAYVQMKSLKTEDTAVYYCTWELSNYDILTGFYYGMDVWGQGTTVTVSS
VL: B3 VL with S31N, K55E, V75I, Y94F
notes: as for B2
B8: CL-82495 (antibody, human IgG4 S228P, kappa, V domains shown)
VH: QVQLVESGGGVVQPGRSLRLSCEASGFTLSSYGMHWVRQAPGKGLEWVAVIWNDGSNKYSADSVKGRFTISRDNSKNTLYLQMNRLRAEDTAVYYCARGGGYYGSGSHYRGYYYYGMDVWGQGTTVTVSS
VL: B5 VL with V29I, D31N, N53S, G76S, F96W, P100Q, D105E
notes: as for B2
B9: CL-148712 (antibody, human IgG4 S228P, kappa, V domains shown)
VH: EVQLVESGGDLVQPGGSLRLSCAASGFTFYSYAMNWVRQAPGKGLKWVSGISGSGDITYYADSVKGRFTISRDNSKNTLYLQMHSLRAEDTAVYYCAKGQLERRYYKYYGMDVWGQGTTVTVSS
VL: DIQMTQSPSSLSASVGDRVTITCRANQGIRNDLGWYQQKPGKAPKRLIYGASSLKSGVPSRFSGSGSGTEFTLTISSLQPEDFATYYCLQQNSYPLTFGGGTKVEIKR
B10: CL-82523 (antibody, human IgG4 S228P, kappa, V domains shown)
VH: EVQLVESGGGLVQPGGSLRLSCAASGFTFSNYAMSWVRQAPRKGLEWVSVISGSGGRTNYAGSVKGRFSITRDNSKNTLYLQMNSLRAEDTAVYYCVKGQLERRYYYYYGMDVWGQGITVTVSS
VL: B9 VL with N26S, G50A, K55Q, Q91H
notes: as for B2
B11: CL-82562 (antibody, human IgG4 S228P, kappa, V domains shown)
VH: QVQLVESGGGVVQPGRSLRLSCTASGFTFSNYAMHWVRQAPGKGLEWVAVISYDGSNKYCADSVKGRFTISRDNSKNTLYLQMNSLRAEDTAVYYCARGPLARRHYYYYGMDVWGQGTTVTVSS
VL: B9 VL with N26S, K55Q, Q91H, L96R, G100Q
notes: as for B2
B12: CL-82517 (antibody, human IgG4 S228P, kappa, V domains shown)
VH: EVQLVESGGGLVKPGGSLRLSCAASGFTFSSYSMNWVRQAPGKGLEWVSSISSSRRYIYYADSVKGRFTISRDNAKNSLYLQMNSLRAEDTAVYYCARAYGQVAPYYYYGMDVWGQGTTVTVSS
VL: AIQLTQSPSSLSASVGDRVTITCRASQGISSALAWYQQKPGKAPKLLIYDASSLESGVPSRFSGSGSGTDFTLTISSLQPEDFATYYCQQFNSYPLTFGGGTKVEIKR
notes: as for B2
B13: CL-82473 (antibody, human IgG4 S228P, kappa, V domains shown)
VH: QVQLVESGGGVVQPGRSLRLSCAASGFTFSSYGMHWVRQAPGKGLEWVTVILYGGSNKYYADSVKGRFTISRDNSKNTLYLQMNSLRAEDTAVYYCARGMLTYYYSSGFDYWGQGTLVTVSS
VL: not shown
notes: as for B2
B14: CL-82577 (antibody, human IgG4 S228P, kappa, V domains shown)
VH: QVQLQESGPGLVKPSQTLSLTCTVSGGSISSGGYYWTWIRQLPGKGLEWIGYMSYSGNTFYSPSLKSRFTISGDTSENQFSLKVNSVTSADTAIYYCARDRRIPMLRGIKGYYYGMDVWGQGTTVTVSS
VL: not shown
notes: as for B2

Numbering of substitutions follows the chain as printed.

The first test has as its target T1, human CXCR4 (cell-expressed) (human, UniProt P61073 1-352). Briefly: cell-based or functional assay.
As to B1, the “% Max Inhibition, cAMP HTRF assay, CXCR4 BacMam HEK-293 cells” value (from here on “% Max Inhibition, cAMP HTRF assay”) turned out to be 103% and the “IC50, cAMP HTRF assay, CXCR4 BacMam HEK-293 cells, 5.5 nM CXCL12” value (from here on “IC50, cAMP HTRF assay”) was 91 nM.
B2: the “% Max Inhibition, cAMP HTRF assay” value worked out at 90% and the “IC50, cAMP HTRF assay” value is 46 nM.
As for B3, the “% Max Inhibition, cAMP HTRF assay” value was 92% and the “IC50, cAMP HTRF assay” value is 39 nM.
On to B4, for which the “% Max Inhibition, cAMP HTRF assay” value is 91% and the “IC50, cAMP HTRF assay” value was found to be 28 nM.
As for B5, the “% Max Inhibition, cAMP HTRF assay” value amounted to 94% and the “IC50, cAMP HTRF assay” value turned out to be 17 nM.
For B6 the same measures were 87% and 74 nM.
With B7, the “% Max Inhibition, cAMP HTRF assay” value stood at 88% and the “IC50, cAMP HTRF assay” value turned out to be 44 nM.
Consider B8, for which the “% Max Inhibition, cAMP HTRF assay” value stood at 96% and the “IC50, cAMP HTRF assay” value worked out at 27 nM.
Take B9: the “% Max Inhibition, cAMP HTRF assay” value worked out at 105% and the “IC50, cAMP HTRF assay” value was 19 nM.
With B10, the “% Max Inhibition, cAMP HTRF assay” value was determined as 87% and the “IC50, cAMP HTRF assay” value stood at 24 nM.
Take B11: the “% Max Inhibition, cAMP HTRF assay” value was found to be 92% and the “IC50, cAMP HTRF assay” value stood at 99 nM.
The matching figures for B12: 79% and 34 nM.
Turning to B13, the “IC50, cAMP HTRF assay” value was more than 1000 nM.
As to B14, the “% Max Inhibition, cAMP HTRF assay” value came to 92% and the “IC50, cAMP HTRF assay” value worked out at 29 nM.

For a further test, the target named is T1, human CXCR4 (cell-expressed). As to the kind of experiment: cell-based or functional assay. The source holds these as a separate data set.
As for B1, the “% Max Inhibition, beta-arrestin reporter assay, Tango CXCR4-bla U2OS cells” value (“% Max Inhibition … Tango CXCR4-bla U2OS cells” below) is 86.8% and the “IC50, beta-arrestin reporter assay, Tango CXCR4-bla U2OS cells, 30 nM CXCL12” value (shortened to “IC50, beta-arrestin reporter assay”) is 9.12 nM.
For B2, the “% Max Inhibition … Tango CXCR4-bla U2OS cells” value worked out at 100% and the “IC50, beta-arrestin reporter assay” value was 1.15 nM.
In the case of B3, the “% Max Inhibition … Tango CXCR4-bla U2OS cells” value came out at 98.2% and the “IC50, beta-arrestin reporter assay” value worked out at 1.56 nM.
As for B4, the “% Max Inhibition … Tango CXCR4-bla U2OS cells” value was 94% and the “IC50, beta-arrestin reporter assay” value amounted to 0.17 nM.
Turning to B5, the “% Max Inhibition … Tango CXCR4-bla U2OS cells” value was determined as 101% and the “IC50, beta-arrestin reporter assay” value is 0.14 nM.
Regarding B6, the “% Max Inhibition … Tango CXCR4-bla U2OS cells” value worked out at 97.2% and the “IC50, beta-arrestin reporter assay” value is 0.38 nM.
As to B7, the “% Max Inhibition … Tango CXCR4-bla U2OS cells” value was determined as 85.6% and the “IC50, beta-arrestin reporter assay” value stood at 1 nM.
For B8 the same measures were 98.9% and 2.08 nM.
In the case of B9, the “% Max Inhibition … Tango CXCR4-bla U2OS cells” value came to 98.4% and the “IC50, beta-arrestin reporter assay” value was 0.19 nM.
Turning to B10, the “% Max Inhibition … Tango CXCR4-bla U2OS cells” value was 101% and the “IC50, beta-arrestin reporter assay” value amounted to 0.08 nM.
Take B11: the “% Max Inhibition … Tango CXCR4-bla U2OS cells” value turned out to be 101% and the “IC50, beta-arrestin reporter assay” value amounted to 0.52 nM.
As to B12, the “% Max Inhibition … Tango CXCR4-bla U2OS cells” value amounted to 89.6% and the “IC50, beta-arrestin reporter assay” value turned out to be 0.84 nM.
For the molecule B13, the “% Max Inhibition … Tango CXCR4-bla U2OS cells” value is 85% and the “IC50, beta-arrestin reporter assay” value was more than 120 nM.
As to B14, the “% Max Inhibition … Tango CXCR4-bla U2OS cells” value is 102% and the “IC50, beta-arrestin reporter assay” value is 0.24 nM.

In another test the target is T2, terbium-labelled SNAP-CXCR4 on HEK-293 cells (Cisbio C1TT1CXCR4) (human, UniProt P61072 1-352 (Pan troglodytes entry), terbium label on the SNAP tag).
T2 construct: Bought assay-ready cells; also called CXCR4 expressing cells; not shown: SNAP tag
As to the kind of experiment: TR-FRET (Tag-lite) competition with AlexaFluor 647-CXCL12 on terbium-labelled SNAP-CXCR4 HEK-293 cells. (Time-resolved FRET reads energy transfer from a long-lived donor to a nearby acceptor.)
On to B2, for which the “% Max Inhibition” value is 97% and the IC50 worked out at 1.41 nM.
B3: the “% Max Inhibition” value came to 98% and the IC50 was determined as 1.21 nM.
The matching figures for B4: 98% and 0.72 nM.
In the case of B5, the “% Max Inhibition” value was 99% and the half-maximal inhibitory concentration (IC50) came out at 0.7 nM.
For the molecule B6, the “% Max Inhibition” value was found to be 97% and the IC50 amounted to 1.16 nM.
The matching figures for B7: 96% and 1.47 nM.
As to B8, the “% Max Inhibition” value was 100% and the IC50 was found to be 1.71 nM.
B10: the “% Max Inhibition” value was 101% and the IC50 came out at 0.55 nM.
For B11, the “% Max Inhibition” value is 100% and the IC50 was 0.86 nM.
As to B12, the “% Max Inhibition” value is 96% and the IC50 stood at 1.06 nM.
The matching figures for B13: 98% and 1.2 nM.
For B14, the “% Max Inhibition” value was 98% and the concentration for half-maximal inhibition (IC50) came out at 0.92 nM.

As usually defined, the IC50 is the concentration at which inhibition is half-maximal. A low value points to higher potency.

Source of the values: US20240294651A1 (KYMAB, published 2024).
